Measured values: US20160052997A1 (CELLTRION, published 2016)
“And” between values parts separate entries of the source, which are not always exact repeats. Equal entries are not always repeated. Where two headings read alike, the source gives them in different places.

Key:
[1] = target: T1, purified recombinant HA protein of H1N1 (A/California/04/09) (Influenza A virus A/California/04/09 …, UniProt P26140 18-529)
[2] = target: T1, purified recombinant HA protein of H1N1 …; assay: SPR, Biacore T200, HA captured via anti-6x his tag antibody, 25 C

B1: CT149 (antibody, V domains shown)
VH: QVQLVQSGAEVKKPGASVKVSCKTSGYSFSTYGVSWVRQAPGQGPEWVGWISAYTGITDYAQKFQGRVTLTTDATTATAFLDLRSLRPDDTATYFCARDKVQGRVEVGSGGRHDYWGQGTLVIVSS
VL: EVVLTQSPGTLALPPGERATLSCRASHRVGSTYIAWYQQKSGQAPRRLIYGASNRATDIPDRFSGSGSGTDFTLTIRRLEPEDSAVYYCQQFSVSPWTFGQGTRVEIKR
B1 was tested, and the Kd [1] was 30.6 nM, the Kd [2] was 30.2 nM and 31 nM and the koff [2] was 0.0388 s⁻¹ and 0.0399 s⁻¹. For the same binder, the kon [2] was 1.29e+06 M⁻¹ s⁻¹.
